The record followed here is article PMC7603069, “Crucial Role of the C-Terminal Domain of Hfq Protein in Genomic Instability”.

For data set [1], the target named is T1, Hfq-CTR peptide (Escherichia coli, UniProt P0A6X3).
T1 chain: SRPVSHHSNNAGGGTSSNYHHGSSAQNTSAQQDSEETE
The experiment in a line: EMSA; quadruplex annealed in water without salt; EMSA: quadruplex prepared in water (95 C 5 min, slow cooling), 20 min at room temperature; native 4-20% polyacrylamide gel in TAE pH 8.0 (40 mM Tris-acetate, 1). As to conditions: parallel G-quadruplex.

In data set [2] the target is T1, Hfq-CTR peptide. The experiment in a line: EMSA?; method not stated for dG7; EMSA: quadruplex prepared in water (95 C 5 min, slow cooling), 20 min at room temperature; native 4-20% polyacrylamide gel in TAE pH 8.0 (40 mM Tris-acetate, 1). As to conditions: parallel G-quadruplex. For orientation: A gel shift assay detects complexes by their altered migration in electrophoresis.

B1: d(G3T)4 (structured_DNA)
DNA: GGGTGGGTGGGTGGGT
Regarding B1, the Kd (as a rule, the concentration at which binding is half-saturated) in the data set with Hfq-CTR peptide [1] is 1060 ± 74 nM.

B2: dG7 (structured_DNA)
DNA: GGGGGGG
B2: the Kd with Hfq-CTR peptide [2] was 981 ± 96 nM.
